Test results taken from patent JP2019059762A (dated 2019).
Values joined by “and” are separate entries in the source; they are usually repeats but may differ in a detail not shown here. Identical values can stand only once.

What was measured:
Test in all cases: cell-based or functional assay
cynomolgus monkey IL-4 = target: T1, cynomolgus monkey IL-4 (cynomolgus monkey, UniProt P79339 25-153)
T1 sequence (looked up): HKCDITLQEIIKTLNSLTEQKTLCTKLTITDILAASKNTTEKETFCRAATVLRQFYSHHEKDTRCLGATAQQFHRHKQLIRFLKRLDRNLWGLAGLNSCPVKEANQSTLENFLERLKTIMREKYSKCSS

recombinant human IL-13 = recombinant human IL-13 (human, UniProt P35225 35-146, limits assumed)
Sequence of recombinant human IL-13 (P35225 35-146 limits assumed): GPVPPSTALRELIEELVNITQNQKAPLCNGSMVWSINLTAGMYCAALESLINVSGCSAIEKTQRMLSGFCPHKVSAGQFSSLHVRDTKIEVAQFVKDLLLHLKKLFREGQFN

cynomolgus monkey IL-13 = cynomolgus monkey IL-13 (cynomolgus monkey, UniProt Q0PW92 21-132)
Sequence of cynomolgus monkey IL-13 (Q0PW92 entry or part of it): as the sequence (P35225 35-146 limits assumed) above, with G1S, R10K, M42V, S67N, H83R, L100V counted along it

- geometric mean IC50, inhibition of cIL-4-induced TF-1 cell proliferation (cynomolgus monkey IL-4): 0.53 nM
- IC50, inhibition of IL-4- and IL-13-induced LOX gene expression in IPF lung fibroblasts (recombinant human IL-13): 3 nM and 6 nM
- IC50, inhibition of IL-13-induced Stat6 phosphorylation in human whole blood monocytes, donor 002 (recombinant human IL-13): 1.32 nM
- IC50, inhibition of IL-13-induced Stat6 phosphorylation in human whole blood monocytes, donor 229 (recombinant human IL-13): 3.68 nM
- IC50, inhibition of IL-13-induced Stat6 phosphorylation in human whole blood monocytes, donor 245 (recombinant human IL-13): 2.65 nM
- IC50, suppression of IL-6 release from IPF lung fibroblasts (LL97A) stimulated with rhIL-13 + rhIL-4 together (recombinant human IL-13): 7.8 nM
- IC50, suppression of eotaxin release from IPF lung fibroblasts (LL97A) stimulated with rhIL-13 + rhIL-4 together (recombinant human IL-13): 3.8 nM
- geometric mean IC50, inhibition of hIL-13-induced TF-1 cell proliferation (recombinant human IL-13): 3.02 nM
- geometric mean IC50 of three experiments, inhibition of IL-13-induced Stat6 phosphorylation (recombinant human IL-13): 2.34 nM
- geometric mean IC50, inhibition of cIL-13-induced TF-1 cell proliferation (cynomolgus monkey IL-13): 0.45 nM
B1: huTBTI3_2_1 (bispecific antibody)
chain 1: EVQLKESGPGLVAPGGSLSITCTVSGFSLTDSSINWVRQPPGKGLEWLGMIWGDGRIDYADALKSRLSISKDSSKSQVFLEMTSLRTDDTATYYCARDGYFPYAMDFWGQGTSVTVSSGGGGSGGGGSQVQLQQSGPELVKPGASVKISCKASGYSFTSYWIHWIKQRPGQGLEWIGMIDPSDGETRLNQRFQGRATLTVDESTSTAYMQLRSPTSEDSAVYYCTRLKEYGNYDSFYFDVWGAGTLVTVSSA
chain 2: DIVLTQSPASLAVSLGQRATISCRASESVDSYGQSYMHWYQQKAGQPPKLLIYLASNLESGVPARFSGSGSRTDFTLTIDPVQAEDAATYYCQQNAEDSRTFGGGTKLEIKGGGGSGGGGSDIQMTQSPASLSVSVGDTITLTCHASQNIDVWLSWFQQKPGNIPKLLIYKASNLHTGVPSRFSGSGSGTGFTLTISSLQPEDIATYYCQQAHSYPFTFGGGTKLEIKR
